Laboratory results: patent US8367060B2, “Pharmaceutical composition containing arazyme for the prevention of liver dysfunction” (Insect Biotech Co., Ltd., priority 2006, dated 2013)
“Also recorded” adds a separate entry of the source.

Tests used:
P-smad3 [1] = assay: Expression of P-smad3 in liver cells by immunoblotting; assay type: in vivo; conditions: SMP30 knock-out mice; compared with CCl4 alone (G6)
Description: (§1) Wild type mice and SMP30 knock-out mice were divided, by 5 of each, into negative control groups (G1, G5), positive control groups (G2, G6), two of experimental group 1 (G3, G7) and two of experimental group 2 (G4, G8) (Table 1). Intraperitoneal administration of olive oil was performed once to negative control mice (G1, G5), while intraperitoneal administration of CCl4 (0.4 ml/kg) was performed once to positive control mice (G2, G6). In the meantime, 100 mg/kg of vitamin C dissolved in tap water was orally administered to experimental group 1 mice (G3, G7) one day before the intraperitoneal administration of CCl4 (0.4 ml/kg). 100 mg/kg of arazyme dissolved in tap water was orally administered to experimental group 2 mice (G4, G8) one day before the intraperitoneal administration of CCl4 (0.4 ml/kg). 24 hours after the administration of CCl4, autopsy was performed in every mouse and samples were taken from each mouse for histopathological test.
(§2) The expression of SMP30 in liver cells was investigated by immunoblotting. First, the liver tissues frozen at −70° C. were homogenized in RIPA buffer containing 0.1 mM sodium orthovandate (Na3VO4) and protease inhibitor cocktail tablet (Roche, Mannheim, Germany). […] Protein concentration was measured by Bradford method and each protein sample proceeded onto 10% SDS-polyacrylamide gel at the concentration of 80 µg/well, followed by electrophoresis. […]

liver cells = assay: Histopathological observation on liver cells (H&E) in CCl4-induced acute liver injury; assay type: in vivo, mice; conditions: for necrosis in liver cells: 100 mg/kg oral one day before CCl4 0.4 ml/kg i.p., autopsy 24 hours after CCl4
Excerpt: In the present invention, male wild type C57BL/6(WT) at 12 weeks and SMP30 knock-out C57BL/6(KO) mice were used to induce liver injury by CCl4 and then the relation of SMP30 with arazyme was investigated. 10 male and 20 female SMP30 knock-out C57BL/6 mice were distributed from Tokyo Metropolitan Institute of Gerontology, which were then raised in the animal laboratory at Department of Pathology, College of Veterinary Medicine, Kyungpook National University, Korea. Among F1 mice generated by breeding, knock-out mice were selected by tail DNA genotyping by PCR.
Wild type mice were quarantined and adapted for 7 days in the animal laboratory. During the adaptation, every symptom was checked and only healthy animals were selected. Both wild type and SMP30 knock-out mice were 12 weeks old, excluding the difference in age.
Rats were adapted and raised in an animal facility where temperature was regulated to 22±3° C., humidity was adjusted to 55±10% and light was also regulated to 12L/12D (08:00 lights on, 20:00 lights out). The environmental conditions were checked regularly (every three months). After environmental evaluation, no changes in important conditions were recognized. During the whole experiment period, rats were raised in polycarbonate cages [240 W×390 L×175 H (mm)] by up to 5 per cage. Skin mark using an oil magic pen and individual identification card were used for distinguishment. Feed for laboratory animals (PMI Nutrition International, 505 North 4th Street Richmond, in 47374, USA) was provided at any time after being sterilized by irradiation (13.2 kGy). Tap water was provided using a water bottle at any time after being purified by a carbon filter. Carbon tetrachloride was diluted in olive oil at the concentration of 0.4 ml/kg and administered to […] once to induce liver injury. 24 hours after the administration, autopsy was performed.
as §1, with “24 hours after the administration of CCl4, autopsy was performed in every mouse and samples were taken from each mouse for histopathological test.” left out

rats = assay: Acute toxicity test of arazyme, single oral administration; assay type: in vivo, Wistar rats; conditions: female rats, oral 1250, 2500 and 5000 mg/kg once
Description: The following experiments were performed to see if arazyme has acute toxicity in rats.
9-week old SPF (specific pathogen-free) Wistar line rats (Orient, Co., Seoul, Korea) were raised in an animal facility (4 groups, 4 rats per group) where temperature was regulated to 22±3° C., humidity was adjusted to 55±10% and light was also regulated to 12L/12D. The rats were quarantined and adapted for one week before being used. During the whole experiment period, the rats were raised in polycarbonate cages [240 W×390 L×175 H (mm)] by up to 5 per cage. Skin mark using an oil magic pen and individual identification card were used for distinguishment. Feed for laboratory animals (PMI Nutrition International, USA) was provided at any time after being sterilized. Tap water was provided using a water bottle at any time after being purified by a carbon filter.
Arazyme of the invention was dissolved in distilled water for injection at the concentrations of 0, 1250, 2500 and 5000 mg/kg, and 10 ml/kg of each arazyme solution was orally administered once to rats using zonde. After one week-adaptation, the rats were divided into four groups. Different concentrations of arazyme were administered to rats at 10 weeks, and general symptoms were checked. To evaluate toxicity of arazyme to organs, autopsy was performed 24 hours after the administration.
After oral-administration of arazyme to female rats, any symptom according to the administration was investigated and behavior, appearance and biological functions of rats were also observed to evaluate toxicity.

P-smad3 [2] = assay: Immunohistochemical observation of P-smad3 expression in liver cells; assay type: in vivo, mice; conditions: for P-smad3 immune response (immunohistochemistry): 100 mg/kg oral before CCl4, 100 mg/kg
SMP30 [3] = assay: Immunohistochemical observation of SMP30 in liver cells; assay type: in vivo; conditions: wild type mice, 100 mg/kg oral before CCl4, compared with CCl4 alone
Description: as §1
To observe SMP30 in liver cells immunohistochemically, paraffin embedded tissues fixed with formalin were cut into 4 μm thick sections, followed by deparaffinization. To inhibit the activity of endogenous peroxidase, the sections were treated in 3% H2O2 for 30 minutes and washed with 0.01 M PBS. To increase antigen expression of the tissues, the sections were treated with 0.01 M citrate buffer, followed by heat treatment using microwave. […]

SMP30 [4] = assay: Expression of SMP30 in liver cells by immunoblotting; assay type: in vivo; conditions: wild type mice; 100 mg/kg oral before CCl4; compared with CCl4 only (G2)
Description: as §1, §2

[5] = autopsy 24 hours after administration

B1: arazyme: novel protease produced by Aranicola proteolyticus HY-3 (KCTC 0268BP); 51.5 kDa monomer; polypeptide sequence SEQ ID NO: 1 (protein, listed as Aranicola proteolyticus)
chain: MQSTKKAIEITESSLAAASSAYNAVDDLLHYHERGNGIQVNGKDSFSTEQAGLFITRENQTWNGYKVFGQPVKLTFSFPDYKFSSTNVAGDTGLSKFSAEQQQQAKLSLQSWSDVANITFTEVGAGQKANITFGNYSQDRPGHYDYDTQAYAFLPNTIYQGQNLGGQTWYNVNQSNVKHPASEDYGRQTFTHEIGHALGLSHPGDYNAGEGNPTYRDASYAEDTREFSLMSYWSETNTGGDNGGHYAAAPLLDDISAIQHLYGANQTTRTGDTVYGFNSNTGRDFLSTTSNPQKVIFAAWDAGGNDTFDFSGYTANQRINLNEKSFSDVGGLKGNVSIAAGVTIENAIGGSGNDVIVGNAANNVLKGGAGNDVLFGGGGADELWGGAGKDTFVFSAVSDSAPGASDWIKDFQKGIDKIDLSFFNQGAQGGDQIHFVDHFSGAAGEALLSYNASNNVSDLALNIGGHQAPDILVKIVGQVDVATDFIV
modifications: BINDING (192)..(192) Zn binding site
P-smad3 [1]
  P-smad3 expression (immunoblotting): inhibited
Liver cells; SMP30 knock-out C57BL/6 mice
  necrosis in liver cells: significantly inhibited
Liver cells; arazyme treated group, CCl4 liver injury
  injury in liver cells around central vein region: only weak injury
Liver cells; wild type C57BL/6 mice
  necrosis in liver cells: significantly inhibited
Liver cells; wild type and SMP30 knock-out mice with acute liver injury
  apoptosis of liver cells, histological observation: inhibition of apoptosis of liver cells was observed
rats
  appearance (hair coat, periocular region, ears, genitalia, limbs, tail): no changes
  biological functions (respiration, salivation, feces, emesis): no abnormal symptoms were found
  symptoms in relation to motion, walking, temper and convulsions: no specific symptoms
rats; [5]
  autopsy with naked eyes, organs: did not cause any abnormal symptom or disorder in every organ
  microscopic observation of organs (liver, heart, lung, spleen): No pathological changes were observed
rats; autopsy 24 hours after administration, listed as Arazyme
  autopsy with naked eyes, organs: no abnormal symptoms were observed
P-smad3 [2]; G4, G8 versus G3, G7, wild type and SMP30 knock-out mice
  P-smad3 expression, arazyme groups compared with vitamin C groups: lower
P-smad3 [2]; SMP30 knock-out mice, G6, G7 compared with G8
  P-smad3 immune response (immunohistochemistry): strongly detected in the groups treated with CCl4 alone or together with vitamin C (G6, G7), compared with the group (G8) treated with arazyme
P-smad3 [2]; wild type mice, compared with CCl4 only (G2)
  P-smad3 immune response (immunohistochemistry): strong immune response against P-smad3 was detected in group 2 (G2) treated with CCl4 only, compared with the groups (G3, G4) treated with vitamin C and arazyme; also recorded: strongly observed in CCl4 treated group (G2), compared with the groups treated with vitamin C and arazyme (G3, G4)
SMP30 [3]
  SMP30 expression (immunohistochemistry): higher; also recorded: more strongly expressed
SMP30 [4]
  SMP30 expression (immunoblotting): high
